Measured values taken from the nanobody polyreactivity screen of Harvey et al. (2022).

Assay: yeast display, Sf9 membrane polyspecificity reagent, FACS + sequencing; frameworks hold sequencing errors
Summary of the method: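 Using colony PCR, genes from sorted yeast display clones were amplified, then sequenced on MiSeq at 2 × 250 and filtered by CDR length. The clones had been stained with 10% biotinylated, detergent-solubilized Sf9 membrane reagent for 1 hour at 4 °C and sorted by FACS into low and high (top ~1%) gates on anti-HA and streptavidin fluorescence. Polyreactivity labels come from the gate of origin.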

Sequence	polyreactivity (PSR sort gate)
QVQLVESGGGLVQAGGSLRLSCAASGLTFGAYAMGWYRQAPGKERELVSAISWSGNTYYADSVKGRFTISRDNAKNTVYLQMNSLKPEDTAGYYCAVRSYGHGFDYWGQGTQVTVSS	high polyreactivity
QVQLVESGGGLVQAGGSLRLSCAASGNIFRKYAMGWYRQAPGKERELVATISYSGGSTYYADSVKGRFTISRDNAKNTVYLQMNSLKPEDTAVYYCNAVKDLDSSFDYWGQGTQVTVSS	low polyreactivity
QVQLVESGGGLVQAGGSLRLSCAASGRTFGVYAMGWYRQAPGKERELVAVIRVIGGSTNYADSVKGRFTISRDNAKNTVYLQMNSLKPEDTAVYYCAADQYYSSDYDYWGQGTQVTVSS	low polyreactivity
QVQLVESAGGLVQAGGSLRLSCAASGIIFEYYTRGWYRQAPGKERELVASITYDGDSTYYADSVKGRFTISRDNAKNTVYLQMNSLKPEDTAVYYCAADYYYVYSSFGHYYWGQGTQVTVSS	low polyreactivity
QVQLVESGGGLVQAGGSLRLSCAASGRIFSAYTMGWYRQAPGNERELVAAIRWSGDSTYYADSVKGRFTISRDNAKNTVYLQKNSLKPEDTAVYYCAARDRWFPRYSSRYYSWGQGTQVSVSS	high polyreactivity
QVQLVESGGGLVQAGGSLRLSCAASGFIFGANTMGWYRQAPGKERELVATISWSGGSTYYADSVKGRFTISRDNAKNTVYLQMNSLKPEDTAVYYCAAPGVTYGFRSDYWGQGTQVTVSS	low polyreactivity
QVQLVESGGGLVQAGGSLRLSCAASGSTFQRNTMGWYRQAPGKERELVADITWSGGNTYYADSVKGRFTISRDNAKNTVYLQMNSLKPEDTAVYYCAAQNVRVGWHASTSYPCPLDYWGPGTQVTVSS	low polyreactivity
QVQLVESGGGLVQAGGSLRLSCAASGRTFRINAMGWYRHAPGKERELVAAITRGDTNYADSVKGRFTISRDNAKNTVYLQMNSLKPEDTAVYYCNAELSFRYPVFRELDYWGQGTQVTVSS	low polyreactivity
QVQLVESGGGLVQAGGSLRLSCAASGSIFIYYAMGWYRQAPGKERELVAAISYSDGDTYYADSVKGRFTISRDNAKNTVYLQMNSLKPEDTAVYYCAAEVPQYYDVGWEDYCGQGTQVTVSS	high polyreactivity
QVQLVESGGGLVKAGGSLRLSCAASGSTLDPNVMGWYRQAPGKERELVAAITSGGSTYYADSVKGRFTISRDNAKNTVYLQMNSLKPEDTAVYYCAADSHGHVFYSWYDYWGQGTQVTVSS	low polyreactivity
QVQLVESGGGLVQAGGSLRLSSAASGLIFWAYAMGWYRQAPGKERELVAAINSGGRTYYADSVKGRFTISRDNAKNTVYLQMNSLKPEDTAVYYCAAAGVYSSDYWGQGTQVTVSS	low polyreactivity
QVQLVESGGGLVQAGGSLRLSCAASGRIFSYYAMGWYRQAPGTERELVAAISWSGSRTNYADSVKGRFTISRDNAKNTVYLQMKSLKPEDTAVYYCAAEDWSTQGSATVQYDYWGQGTEVTVSS	high polyreactivity
QVQLVESGGGLVQAGGSLRLSCAASGRTFTYNAMGWYRQAPGKERELVAAITYRGGSTYYADSVKGRFTISRDNSNNTVYLQMNSLKPEDTAVYYCAASVSYYRYNTPHYYYWGQGTQVTVSS	high polyreactivity
QVHLVESGGGLVQAGGSLRLSCAASGYTRFYALGWYRQAPGKERELVAAISSSGGNTYYADSVKGSFTISRDNAKNTVYLQMNSLKPEDTAVYYCAKYVSYSRTLYDYWGQGTQVTVSS	high polyreactivity
QVQLVESGGGLVQAGGSLRLSCAASGFNFRSYAIGCYRQAPGKERELVAAITSTGGRTYYADSVKGRFTISRDNAKNTVYLQMNSLKPEETAVYYCAAGRKHYAPVHFGYWGQGTQVTVSS	high polyreactivity
QVQLVESGGGIVQAGGSLRLSCAASGFTFIYYAMGWYRQAPGKERELVAGISSGGRTSYADSVKGRFTISRDNAKNTVYFQMNSLKPEDTAVYYCATPVSRFRRTEYGYYYWGQGTQVSVSS	high polyreactivity
QVQLVESGGGLVQAGGSLRLSCAASGSIFHGYAMGWYRQAHGKETELVAVITRGGNTYYADSVKGRFTISRDNAKNTVYLQMNSLKPEDTAVYYCNKAVDRGRRAYGYWGQGTQVTVSS	high polyreactivity
QVQLVESGGGLVQAGGSLRLSCAASGSTFNAYAMGWYRQAPGKERELVAAISSSGGRTHYADSVKGRFTISRDNAKNTVYLQMNSLKPEDTAVFYCNVGKRFVRNDYWGQGTQVTVSS	high polyreactivity
QVQLVESGGGVVQAGGSLRLSCAASGRIFERNAMGSYRQSPVKERELVARITSGGGTYYADSVKGRFTISRDNAKNTVYLQMNSLKPEDSAVYYSAVQYLYRKYRRYDYWGLGTQVTVSS	high polyreactivity
QVQHVESGGGLVQAGGSLRLSCAASGRTFTYNAMGWYRQAPGKERELVAAISWNGGRTYYADSVKGRFTISRDNAKNTVYLEMNSLKPEETAVYYCNAVSYNLAAYDYWGQGTQVTVSS	high polyreactivity
QDQLVESGGGLVQAGGSLRLSCAASGIIFARYAMGWSRPAPGKERELVAAITSGGGSTYYADSVKGRFTISRDNAMNTVYLQMYSLKPEDTAVYYCAADYQTIGWGYDYWGQGTQVTVSS	low polyreactivity
QVQLVESGGGLVQAGGSLRLSCAASGSIFHGYAMGWYRHAPGKERELVAAITWSGGRTYYADSVKGRFTISRDNAKNNVYLQMNSLKPEDTAVYYCAAVALTRRYDYWGQGTQVTVSS	high polyreactivity
